Results from paper PMC6920769, “Knockout of Arabidopsis Serotonin N-Acetyltransferase-2 Reduces Melatonin Levels and Delays Flowering” (Biomolecules, 2019).

Tests used:
AtSNAT1 = molecular target: T1, AtSNAT1 (Arabidopsis thaliana, UniProt Q7X9V3); experiment: HPLC of N-acetylserotonin formed; format: biochemical; conditions: serotonin 0.5 mM
T1 construct: gene NSI

[1] = substrate: NCCc1c[nH]c2ccc(O)cc12; experiment: HPLC of N-acetylserotonin formed, Lineweaver-Burk; format: biochemical, Arabidopsis thaliana; conditions: acetyl-CoA 0.5 mM, 100 mM potassium phosphate pH 7.8, 45 °C, printed as Km for NAS (synthesis)
[2] = substrate: COc1ccc2[nH]cc(CCN)c2c1; experiment: HPLC of melatonin formed, Lineweaver-Burk; format: biochemical, Arabidopsis thaliana; conditions: acetyl-CoA 0.5 mM, 100 mM potassium phosphate pH 7.8, 45 °C

T1 sequence (Q7X9V3 59-258): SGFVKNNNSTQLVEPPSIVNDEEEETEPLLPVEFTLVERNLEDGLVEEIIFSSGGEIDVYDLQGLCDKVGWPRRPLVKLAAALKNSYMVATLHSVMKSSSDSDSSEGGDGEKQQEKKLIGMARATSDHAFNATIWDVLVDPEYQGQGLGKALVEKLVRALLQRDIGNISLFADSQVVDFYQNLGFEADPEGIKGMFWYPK

Molecule | HPLC of N-acetylserotonin formed (AtSNAT1) | Km [1] | Km [2]
NCCc1c[nH]c2ccc(O)cc12 [serotonin] | Melatonin-mediated inhibition of NAS synthesis by recombinant AtSNAT1 | – | –
AtSNAT2 (Arabidopsis thaliana) (protein, kinetics text says recombinant AtSNAT2 (not the truncated form)) MFLGGTISTPPASLRLRSTLNPQNAVTQSSSQATFPAAMQRKPPSYSISDEDLESRGFLLRRTTEGLNLDQLNSVFAAVGFPRRDTAKIEVALQHTDALLWVEYEKTRRPVAFARATGDGVFNAIIWDVVVDPSFQSCGLGKAVMERLIEDLQVKGICNIALYSEPRVLGFYRPLGFVSDPDGIKGMVFIRKQRNKK | – | 232 µM | 630 µM
